B1: Ankyrin repeat domain-containing protein 49 (Homo sapiens), Q8WVL7 (parent)
chain: MEKEKGNDDGIPDQENSLDFSEHFNQLELLETHGHLIPTGTQSLWVGNSDEDEEQDDKNEEWYRLQEKKMEKDPSRLLLWAAEKNRLTTVRRLLSEKATHVNTRDEDEYTPLHRAAYSGHLDIVQELIAQGADVHAVTVDGWTPLHSACKWNNTRVASFLLQHDADINAQTKGLLTPLHLAAGNRDSKDTLELLLMNRYVKPGLKNNLEETAFDIARRTSIYHYLFEIVEGCTNSSPQS
B2: Cyclin-dependent kinase inhibitor 2A (Homo sapiens), P42771 (parent)
chain: MEPAAGSSMEPSADWLATAAARGRVEEVRALLEAGALPNAPNSYGRRPIQVMMMGSARVAELLLLHGAEPNCADPATLTRPVHDAAREGFLDTLVVLHRAGARLDVRDAWGRLPVDLAEELGHRDVARYLRAAAGGTRGSNHARIDAAEGPSDIPD
B3: NF-kappa-B inhibitor alpha (Gallus gallus (Chicken)), Q91974 (parent)
chain: MLSAHRPAEPPAVEGCEPPRKERQGGLLPPDDRHDSGLDSMKEEEYRQLVRELEDIRLQPREPPARPHAWAQQLTEDGDTFLHLAIIHEEKALSLEVIRQAAGDAAFLNFQNNLSQTPLHLAVITDQAEIAEHLLKAGCDLDVRDFRGNTPLHIACQQGSLRSVSVLTQHCQPHHLLAVLQATNYNGHTCLHLASIQGYLAVVEYLLSLGADVNAQEPCNGRTALHLAVDLQNSDLVSLLVKHGPDVNKVTYQGYSPYQLTWGRDNASIQEQLKLLTTADLQILPESEDEESSESEPEFTEDELMYDDCCIGGRQLTF

One test covers variants of B1. Conditions: with ran_human RAN.
Take D107C;K150C: the “effect of a mutation on the interaction” value is reported as “increasing interaction strength”.
Turning to K150I, the “effect of a mutation on the interaction” value is on record as “increasing interaction strength”.
For D107C;K150C;G183C, the “effect of a mutation on the interaction” value was “increasing interaction strength”.
Take G183C: the “effect of a mutation on the interaction” value is “increasing interaction strength”.
For D107I;K150I, the “effect of a mutation on the interaction” value is “increasing interaction strength”.

Variants of B2 are the subject of a further test. Conditions: with ran_human RAN.
On to R87P, for which the “effect of a mutation on the interaction” value is recorded as “disrupting interaction strength”.
As for M53I, the “effect of a mutation on the interaction” value is given as “disrupting interaction strength”.

In another test the parent is B2. As to conditions: with cdk4_human CDK4, P11802.
Chain of cdk4_human CDK4, P11802 (P11802 whole entry): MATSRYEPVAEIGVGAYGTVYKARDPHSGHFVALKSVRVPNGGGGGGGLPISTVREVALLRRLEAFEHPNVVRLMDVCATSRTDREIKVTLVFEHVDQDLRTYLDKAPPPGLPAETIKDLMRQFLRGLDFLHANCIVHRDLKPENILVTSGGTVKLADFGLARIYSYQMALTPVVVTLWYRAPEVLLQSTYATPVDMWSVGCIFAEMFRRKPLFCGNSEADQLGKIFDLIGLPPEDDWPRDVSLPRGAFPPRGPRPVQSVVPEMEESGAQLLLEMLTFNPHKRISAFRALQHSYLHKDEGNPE
On to R87P, for which the “effect of a mutation on the interaction” value is reported as “increasing interaction strength”.
In the case of M53I, the “effect of a mutation on the interaction” value is “increasing interaction strength”.

Variants of B2 are the subject of the next test. As to conditions: with ccnd1_human CCND1, P24385.
Chain of ccnd1_human CCND1, P24385 (P24385 whole entry): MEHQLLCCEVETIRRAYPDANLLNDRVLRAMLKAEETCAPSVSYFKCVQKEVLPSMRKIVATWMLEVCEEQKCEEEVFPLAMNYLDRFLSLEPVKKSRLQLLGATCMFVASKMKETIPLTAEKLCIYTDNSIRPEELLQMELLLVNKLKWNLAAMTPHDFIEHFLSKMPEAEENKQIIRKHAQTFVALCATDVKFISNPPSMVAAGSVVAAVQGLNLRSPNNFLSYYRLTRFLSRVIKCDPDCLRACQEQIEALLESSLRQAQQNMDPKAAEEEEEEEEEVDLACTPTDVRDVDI
R87P: the “effect of a mutation on the interaction” value was “disrupting interaction strength”.
Still for that read-out and setting: the result for M53I reads “increasing interaction strength”.

The variants in the next test derive from B2. Conditions: with cdk4_human CDK4, P11802. The source holds these as a separate data set.
For R87P, the “effect of a mutation on the interaction” value was “decreasing interaction strength”.

Another test covers variants of B2. Conditions: with cdk6_human CDK6, Q00534.
Chain of cdk6_human CDK6, Q00534 (Q00534 whole entry): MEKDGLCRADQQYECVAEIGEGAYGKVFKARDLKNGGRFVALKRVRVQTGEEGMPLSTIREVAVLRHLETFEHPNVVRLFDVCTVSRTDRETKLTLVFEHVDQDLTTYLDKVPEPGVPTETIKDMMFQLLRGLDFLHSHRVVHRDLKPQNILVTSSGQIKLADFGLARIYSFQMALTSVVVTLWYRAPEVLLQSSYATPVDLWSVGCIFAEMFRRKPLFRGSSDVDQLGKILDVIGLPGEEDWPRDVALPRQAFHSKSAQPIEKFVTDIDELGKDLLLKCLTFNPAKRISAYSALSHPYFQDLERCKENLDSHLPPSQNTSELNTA
Turning to R87P, the “effect of a mutation on the interaction” value was “decreasing interaction strength”.

The variants in the next test derive from B2. As to conditions: with cdk6_human CDK6, Q00534. This is another data set of the same source.
On to R87P, for which the “effect of a mutation on the interaction” value is on record as “increasing interaction strength”.
On to M53I, for which the “effect of a mutation on the interaction” value is “increasing interaction strength”.

Variants of B2 are the subject of a further test. As to conditions: with ran_human RAN. This is another data set of the same source.
On to R87P, for which the “effect of a mutation on the interaction” value is “increasing interaction strength”.
For the variant M53I, the “effect of a mutation on the interaction” value is given as “increasing interaction strength”.

A further test covers variants of B3. Conditions: with ran_human RAN.
As for I124A, the “effect of a mutation on the interaction” value is reported as “decreasing interaction strength”.
Still for that read-out and setting: the value for I124Q was “decreasing interaction strength”; that for I124E was “decreasing interaction strength”; that for I124K was “decreasing interaction strength”.
With I124R, the “effect of a mutation on the interaction” value is on record as “decreasing interaction strength”.

The record behind these values is IntAct's records for PubMed 24855949.
